Experimental findings from the supplement of paper PMC9170038 are described below.

In the data set the test system is MS2 coat protein. In words: apparent KD of MS2 coat protein; designed switch direction (-1 OFF switch, 1 ON switch): 1; higher = weaker reporter binding. The method in brief:
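Transcription of designed RNA switches on Illumina chips was done by stalled E. coli RNA polymerase. SNAP-549-labelled MS2 coat protein was then titrated in doubling steps from 0.7 or 1.5 nM to 3 µM, with steps of 0.8–1.5 h at the lowest and 10–20 min at the highest concentration. The per-design median over clusters of curve-fitted normalised fluorescence is reported as apparent KD.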

Setting [1] is: input ligand: microRNA oligo, concentration not stated.
Setting [2] is: Eterna round: R95, input ligand: FMN 200 uM.
Setting [3] is: Eterna round: R95, input ligand: microRNA oligo, concentration not stated.
Where [4] appears, read: Eterna round: R95, input ligand: none.

For “UGGCUCAGACGAGGAUAUAUGUCUCGAGCUUCGGCUCGAGACAUGAGGAUCACCCAUGUAAUAACAUAGAAGGUGUCUGAGCCA [SSNG2/1-C2] (Eterna round: R96, puzzle: Same State NG 2)”, the “apparent KD of MS2 coat protein” value is 50.6 nM (input ligand: FMN 200 uM), 240 nM under setting [1] and 263 nM (input ligand: none).

With “UACAAUCUAUCUGAGGAUAUCAUGAAAAAAACAUGAGGAUCACCCAUGUGCAGGAAAACUGCAUAUGAGAAGGCAGAUAGAUUGC [salish99_SS2_r3_008] (puzzle: Same State 2)”, the “apparent KD of MS2 coat protein” value by setting is: under setting [2], 34.1 nM; under setting [3], 806 nM; under setting [4], 1320 nM.

For the sequence “AUAAAACAUGAGGAUCACCCAUGUCAACAAAGUUGAGGAUAUGGGCAAAUAAAAUAAGAACCAGAAGGCGAAUAAU [salish99_ss1_r3_033] (puzzle: Same State 1)”, the “apparent KD of MS2 coat protein” value under setting [2] stood at 429 nM, the “apparent KD of MS2 coat protein” value under setting [3] was found to be 193 nM and the “apparent KD of MS2 coat protein” value under setting [4] is 546 nM.

Turning to “GCGCAAUGAUGUGACAUGAGGAUCACCCAUGUAACCUCAUGUAAGGAUAUCGGGAAAAAAAAAACCGAGAAGGUAUGGUCACGC [AK SSNG3-V2-27.2] (Eterna round: R96, puzzle: Same State NG 3)”, the “apparent KD of MS2 coat protein” value (input ligand: FMN 200 uM) is 145 nM, the “apparent KD of MS2 coat protein” value under setting [1] is 61.4 nM and the “apparent KD of MS2 coat protein” value (input ligand: none) was 138 nM.

For “GGAGGACAUGAGGAUCACCCAUGUAGAUGGGCGCUAGGAUAUGCGAGAGGGUAGAGAGAAGCAGAAGGAGUGGAAA [JR_SS1_Sub040] (puzzle: Same State 1)”, the “apparent KD of MS2 coat protein” value under setting [2] was 149 nM, the “apparent KD of MS2 coat protein” value under setting [3] stood at 197 nM and the “apparent KD of MS2 coat protein” value under setting [4] was determined as 382 nM.

As to “AAGAAAGACGCAGGAUAUCAGCGCAAACCGCACUGAGAAGGGUGAGACAUGAGGAUCACCCAUGUAACACGGCAAAACGCCGUG [Lausgeledi] (Eterna round: R96, puzzle: Same State NG 1)”, the “apparent KD of MS2 coat protein” value runs as follows: (input ligand: FMN 200 uM) 1530 nM; under setting [1], 268 nM; (input ligand: none) 219 nM.

Consider “AUUUAACAAGCUUUUUGCUCGUCUUAUAAACAUGAGGAUCACCCAUGUAAUAGCGUGAGAGUAAUUUAUUAAAUAAU [JMF 92] (puzzle: Sensor for hsa-mir-208a)”, for which the “apparent KD of MS2 coat protein” value came out at 15.6 nM under setting [2], 41 nM under setting [3] and 15.6 nM under setting [4].

As to “ACAUGAGAGAUAGGAUAUCAUGUACCUACAUGUGACAUGAGGAUCACCCAUGUGGUAAGUAUGAGUGAGAAGGAUCAGAUAUGU [Equivalence 35 - Jieux - Same State NG 2] (Eterna round: R96, puzzle: Same State NG 2)”, the “apparent KD of MS2 coat protein” value is 47.9 nM (input ligand: FMN 200 uM), 272 nM under setting [1] and 467 nM (input ligand: none).

“GCUCGACGUAUUGUUUACAUGAGGAUCACCCAUGUAGGUGCGGAGGAUAUCUACGUGUUUCAUGUAGAGAAGGUCGUGUCGAGC [SameState NG3 #91] (Eterna round: R96, puzzle: Same State NG 3)”: the “apparent KD of MS2 coat protein” value (input ligand: FMN 200 uM) is 24.5 nM, the “apparent KD of MS2 coat protein” value under setting [1] turned out to be 59.2 nM and the “apparent KD of MS2 coat protein” value (input ligand: none) amounted to 106 nM.

On to “CAGCGCUGUUGAGAGGAUAUGCGGUGAUGGACAUGAGGAUCACCCAUGUUAGCGACAGCAUUACGGUAGAAGGCUUCACAGCUGC [Soteed Omei mod 16] (puzzle: Same State 2)”, for which the “apparent KD of MS2 coat protein” value is, setting by setting: under setting [2], 38.9 nM; under setting [3], 126 nM; under setting [4], 235 nM.

Consider “UGGUAACAUGAGGAUCACCCAUGUCAAAUGAAUCAAGGAUAUGGGAAAGGAGAAGAGAAACCAGAAGGUGAGGUUG [Altered State 1-15 - Jieux - Same State 1] (puzzle: Same State 1)”, for which the “apparent KD of MS2 coat protein” value under setting [2] is 108 nM, the “apparent KD of MS2 coat protein” value under setting [3] was 205 nM and the “apparent KD of MS2 coat protein” value under setting [4] amounted to 167 nM.

As for “UGAAUAGUUACAGGAUAUGAGCCGUAAAUUGGGUCAGAAGGGUGGGUGUUCUGCGCGGUGUGUUACAUGAGGAUCACCCAUGUU [SameState NG1 #30] (Eterna round: R96, puzzle: Same State NG 1)”, the “apparent KD of MS2 coat protein” value reads like this: (input ligand: FMN 200 uM) 245 nM; under setting [1], 99.8 nM; (input ligand: none) 244 nM.

On to “AGGCUCAGACUAGGAUAUAUGCGAUCACAUGAGGAUCACCCAUGUCUCGAGCUUCGGCUCGAGGCAUAGAAGGAGUCUGAGCCA [SSNG2/4-D1] (Eterna round: R96, puzzle: Same State NG 2)”, for which the “apparent KD of MS2 coat protein” value (input ligand: FMN 200 uM) stood at 17.1 nM, the “apparent KD of MS2 coat protein” value under setting [1] was determined as 30.8 nM and the “apparent KD of MS2 coat protein” value (input ligand: none) was 57 nM.

Turning to “UGGCUCAGACGAGGAUAUACGUGGUCACAUGAGGAUCACCCAUGUCUCGAGCUUCGGCUCGAGGCGUAGAAGGUGUCUGAGCCA [SSNG2/6-C2] (Eterna round: R96, puzzle: Same State NG 2)”, the “apparent KD of MS2 coat protein” value (input ligand: FMN 200 uM) turned out to be 192 nM, the “apparent KD of MS2 coat protein” value under setting [1] was determined as 609 nM and the “apparent KD of MS2 coat protein” value (input ligand: none) came out at 575 nM.

Take “ACAUGAGAAUUAGGAUAUAUAGUACCUACAUGUGACAUGAGGAUCACCCAUGUGGUAAGUAUGACAUAGAAGGAAUAGAUAUGU [Equivalance 97 - Jieux - Same State NG 2] (Eterna round: R96, puzzle: Same State NG 2)”: the “apparent KD of MS2 coat protein” value turned out to be 66.5 nM (input ligand: FMN 200 uM), 42.9 nM under setting [1] and 56.8 nM (input ligand: none).

Turning to “GUGUUACAUGAGGAUCACCCAUGUUGUUUUAGAUAAGGAUAUAUGGUAACGAGAGAAAUAAUAGAAGGUAUUAGGC [JR_SS1_Sub062] (puzzle: Same State 1)”, the “apparent KD of MS2 coat protein” value under setting [3] stood at 29.9 nM.

Consider “GUGCGGCUGCCACAGGAUAUACGUGGAUCGACAUGAGGAUCACCCAUGUAUAUCCUAAUAAUUGCGUAGAAGGGUGGUCAGCCGG [Anzaenenes] (puzzle: Same State 2)”, for which the “apparent KD of MS2 coat protein” value was 143 nM under setting [2], 608 nM under setting [3] and 825 nM under setting [4].

Turning to “GCUCGUGGUAUUGUCUACAUGAGGAUCACCCAUGUAGGUGCGGAGGAUAUCUACGUGUCUCAUGUAGAGAAGGUCGUCACGAGC [SameState NG3 #99] (Eterna round: R96, puzzle: Same State NG 3)”, the “apparent KD of MS2 coat protein” value is, setting by setting: (input ligand: FMN 200 uM) 61.2 nM; under setting [1], 174 nM; (input ligand: none) 38.7 nM.

For “AACAUGAGGAUCACCCAUGUCAGGCCGCCGGCCUACAUGAGGAAGGAUAUAGCCUCGAAAAUAGGCUAGAAGGUCCUCAUGAAU [Orises] (Eterna round: R96, puzzle: Same State NG 3)”, the “apparent KD of MS2 coat protein” value (input ligand: FMN 200 uM) amounted to 78.6 nM, the “apparent KD of MS2 coat protein” value under setting [1] came to 6.35 nM and the “apparent KD of MS2 coat protein” value (input ligand: none) worked out at 23.2 nM.

In the case of “AUUAAUUAAUUAAUACAUGAGGAUCACCCAUGUAAUAAGAUCUAGGAUAUCAGCUCGAUUAGAGCUGAGAAGGAGAUCACAUGU [SSNG3/17-A2] (Eterna round: R96, puzzle: Same State NG 3)”, under setting [1], the “apparent KD of MS2 coat protein” value amounted to 36.3 nM.

For the sequence “UUGUUUUGAAAUUAACAUGAGGAUCACCCAUGUCGUGAGACAGAGGAUAUACAGGAAUGUAGGUAGUAGAAGGCUGUUUAGUGU [JR_SSNG3_Sub099] (Eterna round: R96, puzzle: Same State NG 3)”, the “apparent KD of MS2 coat protein” value runs as follows: (input ligand: FMN 200 uM) 99.4 nM; under setting [1], 95.6 nM; (input ligand: none) 142 nM.

Consider “UAUGAACAUGAGGAUCACCCAUGUGGAAAAGACACAGGAUAUCAUCCCGGACGUGCGAGAUGAGAAGGGUGAUGGU [Edrive] (puzzle: Same State 1)”, for which the “apparent KD of MS2 coat protein” value was determined as 267 nM under setting [2], 205 nM under setting [3] and 367 nM under setting [4].

For “CUGCAACAUGAGGAUCACCCAUGUAACCCGGUUACAGGAUAUGUGAUGGUGAUCGACAUGACAGAAGGGUGAUUGG [Indiinbi] (puzzle: Same State 1)”, the “apparent KD of MS2 coat protein” value worked out at 41.5 nM under setting [2], 21.5 nM under setting [3] and 29.6 nM under setting [4].

Consider “GCGAUCUACCGGAAGGUAGAUCGGCUUGUACAUGAGGAUCACCCAUGUCUGUACAAGCUUUUUGCUCGUCUUAUGGG [salish99-hsa-208a-66] (Eterna round: R96, puzzle: Sensor for hsa-mir-208a)”, for which the “apparent KD of MS2 coat protein” value came to 1150 nM (input ligand: FMN 200 uM), 27.9 nM under setting [1] and 713 nM (input ligand: none).

Consider “GAGUGGUAAAGAGGAUAUGCAUUGUUAUUCACUGCAGAAGGUUUUAACAUGAGGAUCACCCAUGUAGGACUAUUCCUGUGUUUC [Parity 64 - Jieux - Same State NG 1] (Eterna round: R96, puzzle: Same State NG 1)”, for which the “apparent KD of MS2 coat protein” value under setting [1] was 10.3 nM.

On to “UUUGGGUGGCUGGAGGAUAUUCUUGUGGUUACAUGAGGAUCACCCAUGUGUCGCGCGGUACGCGAGGAGAAGGCUGGCGGCCGUU (puzzle: Same State 2)”, for which the “apparent KD of MS2 coat protein” value under setting [3] was determined as 223 nM.

As to “AAGCUCGUGUGAGGAUAUGCCGCCGUUUCGGCUGCAGAAGGUGCUACGUUACAUGAGGAUCACCCAUGUCUCUGUUGUUUCGUC [salish99_SSNG1_r04_954] (Eterna round: R96, puzzle: Same State NG 1)”, the “apparent KD of MS2 coat protein” value under setting [1] was 22.1 nM.

In the case of “UGGCUGGUGCUAGGAUAUGCAUGAGGCCUCCUCGUAGAAGGAGCACGACAUGAGGAUCACCCAUGUAGCCGUCCGUAGACGGCU [salish99_SSNG1_r04_011] (Eterna round: R96, puzzle: Same State NG 1)”, the “apparent KD of MS2 coat protein” value reads like this: (input ligand: FMN 200 uM) 62.7 nM; under setting [1], 50.1 nM; (input ligand: none) 63.3 nM.

“AGUCAAGACAUGAGGAUCACCCAUGUUGGGAACAUGGAGGACGAGGAUAUGUGUCGAUAUGUGACGUAGAAGGCGUCAGACAAA [Eternabot solution 33] (Eterna round: R96, puzzle: Same State NG 3)”: the “apparent KD of MS2 coat protein” value was found to be 189 nM (input ligand: FMN 200 uM), 224 nM under setting [1] and 419 nM (input ligand: none).
